The record followed here is US20200277382A1 (TUFTS MEDICAL CENTER, published 2020).

The target of the experiment is T1, integrin α5 (obligate heterodimer α5β1) (human, UniProt P08648 42-1049; P05556 21-798).
T1 construct: whole, on cells; on the cells α5 stands as α5β1; also called alpha 5; ITGA5
Nature of the experiment: flow cytometry on a panel of cell lines with variable integrin α5 and alpha-V expression. How it is done:
Flow Cytometry: Cells with variable membrane integrin α5 and alpha-V expression were incubated with monoclonal α5 or alpha-V antibodies (Millipore MAB1956Z and MABT207), the bispecific antibody construct ITGA5B1xAV, or isotype control, for 1 hour at room temperature followed by 1 hour of incubation with a secondary-conjugated antibody, before being analyzed by flow cytometry.
Statistics: The mean fluorescent intensities (MFI) for the α5, alpha-V, and bispecific ITGA5B1xAV stained cell populations for each cell line were calculated from the flow cytometry data. Then a correlation coefficient between the sum of α5 and alpha-V MFIs and the bispecific ITGA5B1xAV was calculated.
The sum of integrin α5 and integrin alpha-V binding (MFI) was highly correlated with bispecific binding (correlation.9187; FIG. 3B).

B1: ITGA5B1xAV bispecific, tetravalent antibody construct (bispecific antibody, human IgG2, kappa)
heavy: QVQLQQSGGELAKPGASVKVSCKASGYTFSSFWMHWVRQAPGQGLEWIGYINPRSGYTEYNEIFRDKATMTTDTSTSTAYMELSSLRSEDTAVYYCASFLGRGAMDYWGQGTTVTVSSASTKGPSVFPLAPCSRSTSESTAALGCLVKDYFPEPVTVSWNSGALTSGVHTFPAVLQSSGLYSLSSVVTVPSSNFGTQTYTCNVDHKPSNTKVDKTVERKCCVECPPCPAPPVAGPSVFLFPPKPKDTLMISRTPEVTCVVVDVSHEDPEVQFNWYVDGVEVHNAKTKPREEQFNSTFRVVSVLTVVHQDWLNGKEYKCKVSNKGLPAPIEKTISKTKGQPREPQVYTLPPSREEMTKNQVSLTCLVKGFYPSDIAVEWESNGQPENNYKTTPPMLDSDGSFFLYSKLTVDKSRWQQGNVFSCSVMHEALHNHYTQKSLSLSPGKGGGGSGGGGSQVQLKESGPGLVAPSQSLSITCTISGFSLTDYGVHWVRQPPGKGLEWLVVIWSDGSSTYNSALKSRMTIRKDNSKSQVFLIMNSLQTDDSAMYYCARHGTYYGMTTTGDALDYWGQGTSVTVSSGGGGSGGGGSGGGGSQIVLTQSPAIMSASLGERVTMTCTASSSVSSNYLHWYQQKPGSAPNLWIYSTSNLASGVPARFSGSGSGTSYSLTISSMEAEDAATYYCHQYLRSPPTFGGGTKLEIK
light: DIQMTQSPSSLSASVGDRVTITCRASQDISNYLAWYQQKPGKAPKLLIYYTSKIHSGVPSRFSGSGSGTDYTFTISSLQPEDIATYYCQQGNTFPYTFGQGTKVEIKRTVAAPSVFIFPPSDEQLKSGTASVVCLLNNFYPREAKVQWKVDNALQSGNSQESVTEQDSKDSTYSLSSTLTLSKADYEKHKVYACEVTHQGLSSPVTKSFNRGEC
notes: also called ITGa5β1xaV; bispecific ITGA5V
Take B1: the binding result is “binds”.
